In PMC6061880:

Assays:
Test in all cases: EMSA
Conditions in all cases: 10 mM Tris-Cl pH 7.5, 10 mM MgCl2, 100 mM KCl, 0.5 ug/ul yeast RNA, 7.5% glycerol, SUPERase In; 5 nM RNA; 30 min at 37 C; 6% native PAGE at 4 C
[1] = test system: T1, RsmN (Pseudomonas aeruginosa), ORF:fe30c157
T1 sequence: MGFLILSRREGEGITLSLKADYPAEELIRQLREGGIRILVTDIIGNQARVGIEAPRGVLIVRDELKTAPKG

[2] = molecular target: RsmA (Pseudomonas aeruginosa) (UniProt O69078)
[3] = test system: RsmN (Pseudomonas aeruginosa)

Chain of RsmA (Pseudomonas aeruginosa) (O69078 whole entry): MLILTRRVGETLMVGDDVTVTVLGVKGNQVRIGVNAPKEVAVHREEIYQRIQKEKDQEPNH

Row | Substance | binding [2] | Kd [3] [nM] | Kd [1] [nM] | other results
1 | GGCAUCAGCGACCAAAGCAAUCCGUUUGCUAUUGAACUCCCAGCCUGGGAGAUAUCCCUGAAGCGACUGGCUCAAGGGACGGGUCGACAAACAAAAACAACAAGCCCGAAAUCAUAAUAAAAACAAAGCACGCACCUACUUGGGGGGGGGUUUUUUUU [3' CrcZ] | binds |  |  | binding [1]: no binding
2 | pslA RNA (non-specific) |  | > 1000 |  | 
3 | GGACAAAAUAAGCAAAUGGAGCGUAUGACCAUGGACAAACCGGCCUCGCGGCAUUUCAGCGUCUUGAUCAUCGAUGAUGAACCCCAGGUGACCUCGGAACUCCGCGAACUGCUGGAAAACGGGGGGGGGUUUUUUUU [pprB leader RNA] | binds |  | 227 | 
4 | 5' CrcZ |  | 112 |  | 
5 | mucA internal RNA |  | 148 |  | 
6 | GGAAACUCUGUCCGCUGUGAUGGAUAACGAAGCGGAUGAACUCGAGUUGCGGCGGGUGCUCGCAGCUUGCGGCGAGGAUGCCGAGCUGCGUUCCACCUGGUCGCGUUACCAGUUGGCGCGGUCCGUCAUGCACCGCGAGCCUACCCUGCCGAAGCUGGAUAUCGCUGCGGCGGUCUCUGCUGCCCUGGCCGACGAGGCCGCUCCGCCGAAAGCGGAGAAGGGACCGUGGCGGAUGGUCGGUCGGGGGGGGGUUUUUUUU [mucA internal RNA] |  |  | 148 | Kd [2]: binds
7 | pprB leader RNA |  | 227 |  | 
8 | GGGUCAGGACAUUGCGCAGGAAGCGCCAAAGACAAUACGGAAACUCAGGGAAUCCACCAUGGAUGGUGGCGUAGCACGGAUGUCAGGAUAGAGGUCUGCAAAACCCCGCCCAAAAGGCGGGGGGGGGUUUUUUUU [RsmY full length] | binds |  |  | binding [1]: binds
9 | GGUAACGACUCCAGCACAACAAAAACAAAAUCGCGGAGGCGCAGCUAACUGAUUCUUUUGGAGAGGAGUUGCUGUCGGGACCCGUCCCGCAGCCAGUCGGAAGAAGAAUAAAACUGCCUUGAGGCAGCGCACAGACUGGUUGGAUCGCUCGACGAUCAUGGCAGCAUCAGGGGGGGGGUUUUUUUU [5' CrcZ] | no binding |  | 112 | 
10 | fhA1 leader RNA |  | 61 |  | 
